Paper PMC11623273, “Epitope-focused immunogens targeting the hepatitis C virus glycoproteins induce broadly neutralizing antibodies” (Science Advances, 2024)

Experiments:
[1] = biological target: T1, E1_S1 (design 1W4K_08), epitope scaffold presenting the HCV E1 epitope (residues 314-324) (designed scaffold from Pyrobaculum …)
T1 chain: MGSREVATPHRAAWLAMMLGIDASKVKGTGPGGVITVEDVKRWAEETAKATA

[2] = biological target: T1, E1_S1 (design 1W4K_08), epitope …; assay: grating-coupled interferometry (GCI, Creoptix WAVE); conditions: both partners purified
[3] = biological target: T2, E2_S2_1 (design 2K6Z_01), epitope scaffold presenting HCV E2 epitope I; conditions: both partners purified
T2 chain: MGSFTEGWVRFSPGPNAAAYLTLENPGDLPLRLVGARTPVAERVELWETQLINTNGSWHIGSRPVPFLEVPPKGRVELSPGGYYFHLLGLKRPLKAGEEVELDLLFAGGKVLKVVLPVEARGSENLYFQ

[4] = biological target: E2_S3_3 (design 4CIL_03), epitope scaffold presenting HCV E2 epitope I; conditions: both partners purified

B1: N15 (antibody, V domains shown)
VH: QVQLVESGGGVVQPGRSLRLSCAASGFTFSSYVMHWVRQAPGKGLEWVAVISYDGSNKYYADSVKGRFTISRDNSKNTLYLQMNSLRAEDTAVYYCARAPLYDILSDYWGQGTLVTVSS
VL: QLVLTQSPSASASLGASVKLTCTLSSGHSSYAIAWHQQQPEKGPRYLMKLNSDGSHSKGDGIPDRFSGSSSGAERYLTISSLQSEDEADYYCQTWGTGIVVFGGGTKLTVL
binding result [1]: binds

B2: Fab fragment of neutralizing antibody IGH526 (Fab, V domains shown)
VH: VQLLEQSGAEVKRPGASVKVSCKASGYTFTSYAIHWVRQAPGQRLEWMGWINPGNGNAKYSQRFQGRVIISRDTSATTSYMELSSLTSEDTAVYSCARDRGFDLLTGHYLGLDPWGQGTLVTVSS
VL: ELTLTQPASASATPGQRVTISCSGSSSNIGGNTVNWYQHLPGAAPKLLIHNNDLRPSGVPDRFSGSKSGTSASLAVSGLQSEDEADYFCAAWDDGLNGWVFGGGTKLTVL
Kd [2]: 1.4 nM | koff [2]: 0.00181 s⁻¹ | kon [2]: 1.32e+06 M⁻¹ s⁻¹

B3: Fab fragment of neutralizing antibody HCV1 (Fab, V domains shown)
VH: EVQLLESGGGVVQPGRSLRLSCTASGFTFNNYGMHWVRQTPGKGLEWLAVIWFDENNKYYADSVRGRFTISRDNSKNTLFLQMNSLKTEDTAMYYCARDISLVRDAFIYFDFWGLGTLVTVSS
VL: ELTLTQSPATLSLSPGERATLSCRASQSVSSYLAWYQQKPGQAPRLLIYDASNRATGIPARFSGSGSGTDFTLTISSLEPEDFAVYYCQQRSNWITFGQGTRLEIK
notes: also called Fab HCV1; F(ab) HCV1
Kd [3]: 23 nM | koff [3]: 0.00121 s⁻¹ | kon [3]: 52700 M⁻¹ s⁻¹ | Kd [4]: 2.8 nM | koff [4]: 0.000369 s⁻¹ | kon [4]: 133000 M⁻¹ s⁻¹
